Measured values from patent US20250171562A1.

B1: NIgG4F3A1(G4S)3 (Fc fusion)
chain 1: DVQLQESGGGLVQAGGSLKLSCAASRGSLSRWDVAWFRQAPGKERSFVTRISWSGTTSYYADAVKGRFAISRDNAKNTVYLQMNSLKPEDTAVYYCAVALYGNRGYYDVNAHSYWGQGTQVTVSGGGGSGGGGSGGGGSGPPCPPCPAPEFLGGPSVFLFPPKPKDTLMISRTPEVTCVVVDVSQEDPEVQFNWYVDGVEVHNAKTKPREEQFNSTYRVVSVLTVLHQDWLNGKEYKCKVSNKGLPSSIEKTISKAKGQPREPQVYTLPPCQEEMTKNQVSLWCLVKGFYPSDIAVEWESNGQPENNYKTTPPVLDSDGSFFLYSRLTVDKSRWQEGNVFSCSVMHEALHNHYTQKSLSLSLGK
chain 2: EVQLLESGGGLVQPGGSLRLSCAASGFTFGNYDMAWVRQAPGKRPEWVSSIDTGGDITHYADSVKGRFTISRDNAKNTLYLQMNSLRPEDTAVYWCATDEEYALGPNEFDYYGQGTLVTVSSGGGGSGGGGSGGGGSGPPCPPCPAPEFLGGPSVFLFPPKPKDTLMISRTPEVTCVVVDVSQEDPEVQFNWYVDGVEVHNAKTKPREEQFNSTYRVVSVLTVLHQDWLNGKEYKCKVSNKGLPSSIEKTISKAKGQPREPQVCTLPPSQEEMTKNQVSLSCAVKGFYPSDIAVEWESNGQPENNYKTTPPVLDSDGSFFLVSRLTVDKSRWQEGNVFSCSVMHEALHNHYTQKSLSLSLGK
B2: CIgG4F3A1(G4S)3 (Fc fusion)
chain 1: GPPCPPCPAPEFLGGPSVFLFPPKPKDTLMISRTPEVTCVVVDVSQEDPEVQFNWYVDGVEVHNAKTKPREEQFNSTYRVVSVLTVLHQDWLNGKEYKCKVSNKGLPSSIEKTISKAKGQPREPQVYTLPPCQEEMTKNQVSLWCLVKGFYPSDIAVEWESNGQPENNYKTTPPVLDSDGSFFLYSRLTVDKSRWQEGNVFSCSVMHEALHNHYTQKSLSLSLGKGGGGSGGGGSGGGGSDVQLQESGGGLVQAGGSLKLSCAASRGSLSRWDVAWFRQAPGKERSFVTRISWSGTTSYYADAVKGRFAISRDNAKNTVYLQMNSLKPEDTAVYYCAVALYGNRGYYDVNAHSYWGQGTQVTVS
chain 2: GPPCPPCPAPEFLGGPSVFLFPPKPKDTLMISRTPEVTCVVVDVSQEDPEVQFNWYVDGVEVHNAKTKPREEQFNSTYRVVSVLTVLHQDWLNGKEYKCKVSNKGLPSSIEKTISKAKGQPREPQVCTLPPSQEEMTKNQVSLSCAVKGFYPSDIAVEWESNGQPENNYKTTPPVLDSDGSFFLVSRLTVDKSRWQEGNVFSCSVMHEALHNHYTQKSLSLSLGKGGGGSGGGGSGGGGSEVQLLESGGGLVQPGGSLRLSCAASGFTFGNYDMAWVRQAPGKRPEWVSSIDTGGDITHYADSVKGRFTISRDNAKNTLYLQMNSLRPEDTAVYWCATDEEYALGPNEFDYYGQGTLVTVSS
B3: CIgG4F3A1(G4S)1 (Fc fusion)
chain 1: GPPCPPCPAPEFLGGPSVFLFPPKPKDTLMISRTPEVTCVVVDVSQEDPEVQFNWYVDGVEVHNAKTKPREEQFNSTYRVVSVLTVLHQDWLNGKEYKCKVSNKGLPSSIEKTISKAKGQPREPQVYTLPPCQEEMTKNQVSLWCLVKGFYPSDIAVEWESNGQPENNYKTTPPVLDSDGSFFLYSRLTVDKSRWQEGNVFSCSVMHEALHNHYTQKSLSLSLGKGGGGSDVQLQESGGGLVQAGGSLKLSCAASRGSLSRWDVAWFRQAPGKERSFVTRISWSGTTSYYADAVKGRFAISRDNAKNTVYLQMNSLKPEDTAVYYCAVALYGNRGYYDVNAHSYWGQGTQVTVS
chain 2: GPPCPPCPAPEFLGGPSVFLFPPKPKDTLMISRTPEVTCVVVDVSQEDPEVQFNWYVDGVEVHNAKTKPREEQFNSTYRVVSVLTVLHQDWLNGKEYKCKVSNKGLPSSIEKTISKAKGQPREPQVCTLPPSQEEMTKNQVSLSCAVKGFYPSDIAVEWESNGQPENNYKTTPPVLDSDGSFFLVSRLTVDKSRWQEGNVFSCSVMHEALHNHYTQKSLSLSLGKGGGGSEVQLLESGGGLVQPGGSLRLSCAASGFTFGNYDMAWVRQAPGKRPEWVSSIDTGGDITHYADSVKGRFTISRDNAKNTLYLQMNSLRPEDTAVYWCATDEEYALGPNEFDYYGQGTLVTVSS
B4: CIgG4F3A1(G4S)2 (Fc fusion)
chain 1: GPPCPPCPAPEFLGGPSVFLFPPKPKDTLMISRTPEVTCVVVDVSQEDPEVQFNWYVDGVEVHNAKTKPREEQFNSTYRVVSVLTVLHQDWLNGKEYKCKVSNKGLPSSIEKTISKAKGQPREPQVYTLPPCQEEMTKNQVSLWCLVKGFYPSDIAVEWESNGQPENNYKTTPPVLDSDGSFFLYSRLTVDKSRWQEGNVFSCSVMHEALHNHYTQKSLSLSLGKGGGGSGGGGSDVQLQESGGGLVQAGGSLKLSCAASRGSLSRWDVAWFRQAPGKERSFVTRISWSGTTSYYADAVKGRFAISRDNAKNTVYLQMNSLKPEDTAVYYCAVALYGNRGYYDVNAHSYWGQGTQVTVS
chain 2: GPPCPPCPAPEFLGGPSVFLFPPKPKDTLMISRTPEVTCVVVDVSQEDPEVQFNWYVDGVEVHNAKTKPREEQFNSTYRVVSVLTVLHQDWLNGKEYKCKVSNKGLPSSIEKTISKAKGQPREPQVCTLPPSQEEMTKNQVSLSCAVKGFYPSDIAVEWESNGQPENNYKTTPPVLDSDGSFFLVSRLTVDKSRWQEGNVFSCSVMHEALHNHYTQKSLSLSLGKGGGGSGGGGSEVQLLESGGGLVQPGGSLRLSCAASGFTFGNYDMAWVRQAPGKRPEWVSSIDTGGDITHYADSVKGRFTISRDNAKNTLYLQMNSLRPEDTAVYWCATDEEYALGPNEFDYYGQGTLVTVSS
B5: NIgG4F3A1(G4S)2 (Fc fusion)
chain 1: DVQLQESGGGLVQAGGSLKLSCAASRGSLSRWDVAWFRQAPGKERSFVTRISWSGTTSYYADAVKGRFAISRDNAKNTVYLQMNSLKPEDTAVYYCAVALYGNRGYYDVNAHSYWGQGTQVTVSGGGGSGGGGSGPPCPPCPAPEFLGGPSVFLFPPKPKDTLMISRTPEVTCVVVDVSQEDPEVQFNWYVDGVEVHNAKTKPREEQFNSTYRVVSVLTVLHQDWLNGKEYKCKVSNKGLPSSIEKTISKAKGQPREPQVYTLPPCQEEMTKNQVSLWCLVKGFYPSDIAVEWESNGQPENNYKTTPPVLDSDGSFFLYSRLTVDKSRWQEGNVFSCSVMHEALHNHYTQKSLSLSLGK
chain 2: EVQLLESGGGLVQPGGSLRLSCAASGFTFGNYDMAWVRQAPGKRPEWVSSIDTGGDITHYADSVKGRFTISRDNAKNTLYLQMNSLRPEDTAVYWCATDEEYALGPNEFDYYGQGTLVTVSSGGGGSGGGGSGPPCPPCPAPEFLGGPSVFLFPPKPKDTLMISRTPEVTCVVVDVSQEDPEVQFNWYVDGVEVHNAKTKPREEQFNSTYRVVSVLTVLHQDWLNGKEYKCKVSNKGLPSSIEKTISKAKGQPREPQVCTLPPSQEEMTKNQVSLSCAVKGFYPSDIAVEWESNGQPENNYKTTPPVLDSDGSFFLVSRLTVDKSRWQEGNVFSCSVMHEALHNHYTQKSLSLSLGK
B6: NIgG4F4A1(RS) (Fc fusion)
chain 1: DVQLQESGGGLVQAGGSLRLSCAVSGLSFSSMGWFRQPPGKEREFVAAISLYSGSTYYADSVKGRFTISSDNAKSTVYLQMNSLKPEDAAVYFCAADRQRTWSTFYASRQATYNYWGQGTQVTVTSRSGPPCPPCPAPEFLGGPSVFLFPPKPKDTLMISRTPEVTCVVVDVSQEDPEVQFNWYVDGVEVHNAKTKPREEQFNSTYRVVSVLTVLHQDWLNGKEYKCKVSNKGLPSSIEKTISKAKGQPREPQVYTLPPCQEEMTKNQVSLWCLVKGFYPSDIAVEWESNGQPENNYKTTPPVLDSDGSFFLYSRLTVDKSRWQEGNVFSCSVMHEALHNHYTQKSLSLSLGK
chain 2: EVQLLESGGGLVQPGGSLRLSCAASGFTFGNYDMAWVRQAPGKRPEWVSSIDTGGDITHYADSVKGRFTISRDNAKNTLYLQMNSLRPEDTAVYWCATDEEYALGPNEFDYYGQGTLVTVSSRSGPPCPPCPAPEFLGGPSVFLFPPKPKDTLMISRTPEVTCVVVDVSQEDPEVQFNWYVDGVEVHNAKTKPREEQFNSTYRVVSVLTVLHQDWLNGKEYKCKVSNKGLPSSIEKTISKAKGQPREPQVCTLPPSQEEMTKNQVSLSCAVKGFYPSDIAVEWESNGQPENNYKTTPPVLDSDGSFFLVSRLTVDKSRWQEGNVFSCSVMHEALHNHYTQKSLSLSLGK
B7: NIgG4F3A1(G4S)1 (Fc fusion)
chain 1: DVQLQESGGGLVQAGGSLKLSCAASRGSLSRWDVAWFRQAPGKERSFVTRISWSGTTSYYADAVKGRFAISRDNAKNTVYLQMNSLKPEDTAVYYCAVALYGNRGYYDVNAHSYWGQGTQVTVSGGGGSGPPCPPCPAPEFLGGPSVFLFPPKPKDTLMISRTPEVTCVVVDVSQEDPEVQFNWYVDGVEVHNAKTKPREEQFNSTYRVVSVLTVLHQDWLNGKEYKCKVSNKGLPSSIEKTISKAKGQPREPQVYTLPPCQEEMTKNQVSLWCLVKGFYPSDIAVEWESNGQPENNYKTTPPVLDSDGSFFLYSRLTVDKSRWQEGNVFSCSVMHEALHNHYTQKSLSLSLGK
chain 2: EVQLLESGGGLVQPGGSLRLSCAASGFTFGNYDMAWVRQAPGKRPEWVSSIDTGGDITHYADSVKGRFTISRDNAKNTLYLQMNSLRPEDTAVYWCATDEEYALGPNEFDYYGQGTLVTVSSGGGGSGPPCPPCPAPEFLGGPSVFLFPPKPKDTLMISRTPEVTCVVVDVSQEDPEVQFNWYVDGVEVHNAKTKPREEQFNSTYRVVSVLTVLHQDWLNGKEYKCKVSNKGLPSSIEKTISKAKGQPREPQVCTLPPSQEEMTKNQVSLSCAVKGFYPSDIAVEWESNGQPENNYKTTPPVLDSDGSFFLVSRLTVDKSRWQEGNVFSCSVMHEALHNHYTQKSLSLSLGK
B8: CIgG4F3A1(RS) (Fc fusion)
chain 1: GPPCPPCPAPEFLGGPSVFLFPPKPKDTLMISRTPEVTCVVVDVSQEDPEVQFNWYVDGVEVHNAKTKPREEQFNSTYRVVSVLTVLHQDWLNGKEYKCKVSNKGLPSSIEKTISKAKGQPREPQVYTLPPCQEEMTKNQVSLWCLVKGFYPSDIAVEWESNGQPENNYKTTPPVLDSDGSFFLYSRLTVDKSRWQEGNVFSCSVMHEALHNHYTQKSLSLSLGKRSDVQLQESGGGLVQAGGSLKLSCAASRGSLSRWDVAWFRQAPGKERSFVTRISWSGTTSYYADAVKGRFAISRDNAKNTVYLQMNSLKPEDTAVYYCAVALYGNRGYYDVNAHSYWGQGTQVTVS
chain 2: GPPCPPCPAPEFLGGPSVFLFPPKPKDTLMISRTPEVTCVVVDVSQEDPEVQFNWYVDGVEVHNAKTKPREEQFNSTYRVVSVLTVLHQDWLNGKEYKCKVSNKGLPSSIEKTISKAKGQPREPQVCTLPPSQEEMTKNQVSLSCAVKGFYPSDIAVEWESNGQPENNYKTTPPVLDSDGSFFLVSRLTVDKSRWQEGNVFSCSVMHEALHNHYTQKSLSLSLGKRSEVQLLESGGGLVQPGGSLRLSCAASGFTFGNYDMAWVRQAPGKRPEWVSSIDTGGDITHYADSVKGRFTISRDNAKNTLYLQMNSLRPEDTAVYWCATDEEYALGPNEFDYYGQGTLVTVSS

The binders below were run against mixture of three Der p 2 specific recombinant human IgE clones H10, H12, P4E (human) (UniProt P01854) (assay: RBL-SX38 IgE displacement, FACS).
Sequence of mixture of three Der p 2 specific recombinant human IgE clones H10, H12, P4E (human) (P01854 other isoform, or with tags, fused parts or gaps): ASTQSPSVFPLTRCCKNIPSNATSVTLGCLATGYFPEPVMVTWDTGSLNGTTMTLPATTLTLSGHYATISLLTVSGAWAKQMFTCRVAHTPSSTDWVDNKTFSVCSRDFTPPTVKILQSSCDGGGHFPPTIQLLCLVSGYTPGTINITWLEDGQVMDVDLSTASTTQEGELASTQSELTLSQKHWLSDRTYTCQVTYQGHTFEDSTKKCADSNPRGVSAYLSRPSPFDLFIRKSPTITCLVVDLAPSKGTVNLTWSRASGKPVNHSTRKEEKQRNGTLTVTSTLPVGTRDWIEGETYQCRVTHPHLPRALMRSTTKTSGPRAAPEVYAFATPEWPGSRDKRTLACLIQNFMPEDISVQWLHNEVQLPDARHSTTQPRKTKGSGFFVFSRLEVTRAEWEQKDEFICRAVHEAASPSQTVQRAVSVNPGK
With B1 the EC50 was 0.9 nM and the Max effect/effect 1 µM was 94%.
With B2 the Max effect/effect 1 µM was 2%.
B3 gave a Max effect/effect 1 µM of 35%.
B4 showed a Max effect/effect 1 µM of 0%.
B5 showed an EC50 of 2 nM and a Max effect/effect 1 µM of 95%.
For B6, the EC50 was 331 nM and the Max effect/effect 1 µM was 74%.
In the case of B7, the EC50 is reported as 2 nM and the Max effect/effect 1 µM is reported as 93%.
B8 gave a Max effect/effect 1 µM of 9%.
